Laboratory results reported in publication doi:10.1101/2025.03.13.643145 (bioRxiv, 2025).
Positions of bridges follow the written chain, without caps; N, C: chain ends. No end group written: not given here.

Tests used:
Assay in all cases: ELISA
[1] = molecular target: T1, CD151 EC2 domain (extracellular-2 domain of tetraspanin CD151, residues 113-221) (UniProt P48509 113-221)
T1 sequence: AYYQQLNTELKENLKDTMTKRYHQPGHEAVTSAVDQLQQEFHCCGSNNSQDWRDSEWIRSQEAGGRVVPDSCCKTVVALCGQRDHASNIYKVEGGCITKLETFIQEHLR

[2] = molecular target: T2, CD81 EC2 domain (extracellular-2 domain of tetraspanin CD81, residues 113-201) (UniProt P60033 113-201)
T2 sequence: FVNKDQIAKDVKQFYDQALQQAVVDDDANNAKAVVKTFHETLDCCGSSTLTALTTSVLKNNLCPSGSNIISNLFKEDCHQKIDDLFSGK

[3] = molecular target: T3, CD9 EC2 domain (extracellular-2 domain of tetraspanin CD9, residues 113-192) (UniProt P21926 113-192)
T3 sequence: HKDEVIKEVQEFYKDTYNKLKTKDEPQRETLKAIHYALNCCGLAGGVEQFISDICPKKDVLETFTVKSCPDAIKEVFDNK

Measured: binding result

CRLAGIVQPNDGQSHVGSDNHYSASTTMC (disulfide 1-29; also: GST fusion protein) [disulfide-linked cyclic site 2 peptide of integrin β3 (GST fusion protein)]
binds: all assays above
